These results are taken from publication PMC3842988 (Molecular Biology of the Cell, 2013).

The test has as its target T1, FLAG-Htt103Q-GFP (Huntingtin with 103Q glutamine stretch, lacking the proline-rich region) (UniProt P42858 1-17).
T1 chain: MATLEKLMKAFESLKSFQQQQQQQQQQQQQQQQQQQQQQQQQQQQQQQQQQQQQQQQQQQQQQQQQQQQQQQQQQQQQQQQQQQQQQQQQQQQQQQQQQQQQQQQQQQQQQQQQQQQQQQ
As to the kind of experiment: co-IP.

Where only a bound is given, the exact number is not on record here.

B1: Sis1 (type II Hsp40) (natural protein)
chain: MVKETKLYDLLGVSPSANEQELKKGYRKAALKYHPDKPTGDTEKFKEISEAFEILNDPQKREIYDQYGLEAARSGGPSFGPGGPGGAGGAGGFPGGAGGFSGGHAFSNEDAFNIFSQFFGGSSPFGGADDSGFSFSSYPSGGGAGMGGMPGGMGGMHGGMGGMPGGFRSASSSPTYPEEETVQVNLPVSLEDLFVGKKKSFKIGRKGPHGASEKTQIDIQLKPGWKAGTKITYKNQGDYNPQTGRRKTLQFVIQEKSHPNFKRDGDDLIYTLPLSFKESLLGFSKTIQTIDGRTLPLSRVQPVQPSQTSTYPGQGMPTPKNPSQRGNLIVKYKVDYPISLNDAQKRAIDENF
With B1, the “fold change of the co-precipitate, Sti1 elevated against endogenous Sti1” value was roughly 4 fold.

B2: Ssa1 (Hsp70) (natural protein)
chain: not shown
For the molecule B2, the “fold change of the co-precipitate, Sti1 elevated against endogenous Sti1” value is greater than 2 fold.
